Patent publication US20050053985A1 (PTC THERAPEUTICS, published 2005)

B1: His-Flag-HsSen2deltaEx8 (other, not shown: small tags and cut ends)
chain: MAEAVFHAPKRKRRVYETYESPLPIPFGQDHGPLKEFKIFRAEMINNNVIVRNAEDIEQLYGKGYFGKGILSRSRPSFTISDPKLVAKWKDMKTNMPIITSKRYQHSVEWAAELMRRQGQDESTVRRILKDYTKPLEHPPVKRNEEAQVHDKLNSGMVSNMEGTAGGERPSVVNGDSGKSGGVGDPREPLGCLQEGSGCHPTTESFEKSVREDASPLPHVCCCKQDALILQRGLHHEDGSQHIGLLHPGDRGPDHEYVLVEEAECAMSEREAAPNEELVQRNRLICRRNPYRIFEYLQLSLEEEPLTIVKLWKAFTVVQPTFRTTYMAYHYFRSKGWVPKVGLKYGTDLLLYRKGPPFYHASYSVIIELVDDHFEGSLRRPLSWKSLAALSRVSVNVSKELMLCYLIKPSTMTDKEMESPECMKRIKVQEVILSRWVSSRERSDQDDL
notes: also called His-Flag-Sen2ΔEx8; His-Flag-Sen2deltaEx8
B2: His-Flag-HsSen2 (other, not shown: small tags and cut ends)
chain: MAEAVFHAPKRKRRVYETYESPLPIPFGQDHGPLKEFKIFRAEMINNNVIVRNAEDIEQLYGKGYFGKGILSRSRPSFTISDPKLVAKWKDMKTNMPIITSKRYQHSVEWAAELMRRQGQDESTVRRILKDYTKPLEHPPVKRNEEAQVHDKLNSGMVSNMEGTAGGERPSVVNGDSGKSGGVGDPREPLGCLQEGSGCHPTTESFEKSVREDASPLPHVCCCKQDALILQRGLHHEDGSQHIGLLHPGDRGPDHEYVLVEEAECAMSEREAAPNEELVQRNRLICRRNPYRIFEYLQLSLEEAFFLVYALGCLSIYYEKEPLTIVKLWKAFTVVQPTFRTTYMAYHYFRSKGWVPKVGLKYGTDLLLYRKGPPFYHASYSVIIELVDDHFEGSLRRPLSWKSLAALSRVSVNVSKELMLCYLIKPSTMTDKEMESPECMKRIKVQEVILSRWVSSRERSDQDDL
notes: Bait expressed stably in 293 cells and purified with its partners over anti-Flag and Ni beads; also called His-Flag-Sen2; His-Flag-Sen2WT
B3: His-Flag-HsSen15 (other)
chain: MEERGDSEPTPGCSGLGPGGVRGFGDGGGAPSWAPEDAWMGTHPKYLEMMELDIGDATQVYVAFLVYLDLMESKSWHEVNCVGLPELQLICLVGTEIEGEGLQTVVPTPITASLSHNRIREILKASRKLQGDPDLPMSFTLAIVESDSTIVYYKLTDGFMLPDPQNISLRR
notes: Bait expressed stably in 293 cells; also called His-Flag-Sen15; tagged HsSen15; not shown: His and Flag tag from the His-Flag-pcDNA3.1/Hygro vector
B4: His-Flag-HsSen34 (other, not shown: small tags and cut ends)
chain: MLVVEVANGRSLVWGAEAVQALRERLGVGGRTVGALPRGPRQNSRLGLPLLLMPEEARLLAEIGAVTLVSAPRPDSRHHSLALTSFKRQQEESFQEQSALAAEARETRRQELLEKITEGQAAKKQKLEQASGASSSQEAGSSQAAKEDETSDGQASGEQEEAGPSSSQAGPSNGVAPLPRSALLVQLATARPRPVKARPLDWRVQSKDWPHAGRPAHELRYSIYRDLWERGFFLSAAGKFGGDFLVYPGDPLRFHAHYIAQCWAPEDTIPLQDLVAAGRLGTSVRKTLLLCSPQPDGKVVYTSLQWASLQ
notes: Bait expressed stably in 293 cells; also called His-Flag-Sen34; His-Flag-34

Target: SmB/B′ proteins (human, UniProt P14678 1-240)
Experiment: co-purification with the His-Flag-tagged bait from stable 293 cells (anti-Flag beads, then Ni beads); SDS-PAGE, Western blot with Y12 antibody (SmB/B′)
Protocol: Proteins co-purified with His-Flag-HsSen2, His-Flag-HsSen2deltaEx8, His-Flag-HsSen34, His-Flag-HsSen15 and His-Flag-HsClp1 were analyzed by SDS-PAGE followed by Western blotting with antibodies against Symplekin, CstF64. Y12 antibody that recognizes SmB/B′ proteins was used a negative control.
Complexes purified using the different epitope-tagged subunits of the endonuclease complexes were analyzed by Western blotting using antibodies specific for Symplekin and CstF64, components of the human pre-mRNA 3′-end processing complex. Y12 antibody (known to recognize pre-mRNA splicing snRNP […] proteins) was used as a negative control. […] Similar amounts of 3′-end complexes were purified from all His-Flag-tagged tRNA endonuclease subunits. Since the purification conditions were very stringent and utilized two affinity chromatography steps (see experimental procedures), the interaction between tRNA splicing endonuclease and pre-mRNA 3′-end processing factors is quite robust. Immunoprecipitation under standard salt conditions to more accurately determine the amount of 3′-end factors associated with the tRNA endonuclease was also performed. It was shown that as much as 1% of the 3′-end processing factors are associated with the tRNA endonuclease. […] Furthermore, His-Flag-HsSen2deltaEx8 and His-Flag-HsClp1 were able to associate with a larger proportion of the 3′-end formation complexes (FIG. 29, compare lane 8 and 11 to 7, 9, 10). [0764] 5.2.2.7 Depletion of SEN2 Causes Defects in tRNA Splicing and Pre-mRNA 3′ end Formation

Binding result, no binding:
B1
B2
B3
B4
